According to patent US6686177B1, “Insulin analogs with enhanced zinc binding” (Aventis Pharma Deutschland GmbH, priority 1998, dated 2004):

Columns and labels:
[1] = Zinc binding of insulin analogs (dialysis against zinc-free neutral buffer, HPLC and atomic absorption spectroscopy); assay type: physicochemical; conditions: for Zinc binding: after extensive dialysis against zinc-free neutral buffer, pH 7.4; for zinc ions bound per hexamer: aqueous neutral solution, not removable by dialysis
Description: The dialyzates were then acidified and analyzed. The concentration of insulin was determined by reversed phase HPLC and that of the zinc by atomic absorption spectroscopy. The zinc values were corrected using the zinc content of a control batch which contained no insulin.

[2] = aqueous neutral solution, not removable by dialysis; cited from earlier work

Asp(B3)-human insulin [Asp(B3)-insulin]
Zinc binding [1]: 4.2 mol of zinc/mol of hexamer | zinc ions bound per hexamer [1]: 4.2 zinc ions/hexamer

His(B3)-human insulin [His(B3)-insulin]
Zinc binding [1]: 6.9 mol of zinc/mol of hexamer | zinc ions bound per hexamer [1]: approximately 7 zinc ions/hexamer

human insulin [reference compound]
Zinc binding [1]: 2.5 mol of zinc/mol of hexamer | zinc ions complexed per hexamer via the His(B10) side chains [2]: two
